# According to patent US20200181263A1 (NUMAB THERAPEUTICS, published 2020):
# T1: cyno CD3 (cyno, UniProt Q95LI5 22-117)
# T1 sequence (looked up): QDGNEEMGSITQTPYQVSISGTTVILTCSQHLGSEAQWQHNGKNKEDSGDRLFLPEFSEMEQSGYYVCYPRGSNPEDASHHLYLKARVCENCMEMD
# T2: human IL-23 receptor ECD (human, UniProt Q5VWK5 24-355)
# T2 construct: extracellular domain
# T2 sequence (looked up): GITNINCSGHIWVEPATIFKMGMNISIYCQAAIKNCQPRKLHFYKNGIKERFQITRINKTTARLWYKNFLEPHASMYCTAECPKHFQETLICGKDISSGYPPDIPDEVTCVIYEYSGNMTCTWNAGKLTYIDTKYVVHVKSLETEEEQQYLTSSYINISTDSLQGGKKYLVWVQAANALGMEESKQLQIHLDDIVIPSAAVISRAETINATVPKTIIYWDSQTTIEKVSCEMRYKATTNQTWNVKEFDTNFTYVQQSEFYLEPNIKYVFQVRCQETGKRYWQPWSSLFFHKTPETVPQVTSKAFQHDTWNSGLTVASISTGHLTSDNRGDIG
# B1: PRO747 (other)
# chain 1: DIQMTQSPSSLSASVGDRVTITCQASENIYSFLAWYQQKPGKAPKLLIYSASKLAAGVPSRFSGSGSGTDFTLTISSLQPEDFATYYCQQTNRYSNPDIYNVFGTGTKVTVLGGGGGSGGGGSGGGGSGGGGSEVQLVESGGGLVQPGGSLRLSCAASGIDFNSNYYMCWVRQAPGKGLEWIGCIYVGSHVNTYYANWAKGRFTISRDNSKNTVYLQMNSLRAEDTAVYYCATSGSSVLYFKFWGQGTLVTVSSGGGGSGGGGSDIQMTQSPSSLSASVGDRVTITCQSSQSVFSNNYLAWFQQKPGQSPKRLIYSASTLASGVPSRFSGSGSGTDFTLTISSLQPEDFATYYCLGSYACSSADCYVFGCGTKVTVLGAEAAAKEAAAKADIQMTQSPSSLSASVGDRVTITCQSSESVYSNNQLSWYQQKPGQPPKLLIYDASDLASGVPSRFSGSGSGTDFTLTISSLQPEDFATYYCAGGFSSSSDTAFGGGTKLTVLG
# chain 2: DIQMTQSPSSLSASVGDRVTITCQASENIYSFLAWYQQKPGKAPKLLIYSASKLAAGVPSRFSGSGSGTDFTLTISSLQPEDFATYYCQQTNRYSNPDIYNVFGTGTKVTVLGGGGGSGGGGSGGGGSGGGGSEVQLVESGGGLVQPGGSLRLSCAASGIDFNSNYYMCWVRQAPGKGLEWIGCIYVGSHVNTYYANWAKGRFTISRDNSKNTVYLQMNSLRAEDTAVYYCATSGSSVLYFKFWGQGTLVTVSSGGGGSGGGGSEVQLVESGGGLVQPGGSLRLSCAASGFSLSSNAMGWVRQAPGKGLEYIGIISVGGFTYYASWAKGRFTISRDNSKNTVYLQMNSLRAEDTATYFCARDRHGGDSSGAFYLWGQGTLVTVSSAEAAAKEAAAKAEVQLVESGGGLVQPGGSLRLSCAASGFSLSSYDMSWVRQAPGKCLAWIGASYASGPTYYASWAKGRFTISRDNSKNTVYLQMNSLRAEDTATYFCARGGWTGTSHSNIWGQGTLVTVSS
# notes: Hetero-dimeric MATCH, anti-parallel; diS in anti-CD3 domain, helical linker
# B2: PRO737 (other)
# chain 1: DIQMTQSPSSLSASVGDRVTITCQASENIYSFLAWYQQKPGKAPKLLIYSASKLAAGVPSRFSGSGSGTDFTLTISSLQPEDFATYYCQQTNRYSNPDIYNVFGTGTKVTVLGGGGGSGGGGSGGGGSGGGGSEVQLVESGGGLVQPGGSLRLSCAASGIDFNSNYYMCWVRQAPGKGLEWIGCIYVGSHVNTYYANWAKGRFTISRDNSKNTVYLQMNSLRAEDTAVYYCATSGSSVLYFKFWGQGTLVTVSSGGGGSGGGGSDIQMTQSPSSLSASVGDRVTITCQSSESVYNNKRLSWYQQKPGKAPKLLIYTASSLASGVPSRFSGSGSGTDFTLTISSLQPEDFATYYCQGEFTCSNADCFTFGCGTKVTVLGGGGGSGGGGSGGGGSDIQMTQSPSSLSASVGDRVTITCQSSESVYSNNQLSWYQQKPGQPPKLLIYDASDLASGVPSRFSGSGSGTDFTLTISSLQPEDFATYYCAGGFSSSSDTAFGGGTKLTVLG
# chain 2: DIQMTQSPSSLSASVGDRVTITCQASENIYSFLAWYQQKPGKAPKLLIYSASKLAAGVPSRFSGSGSGTDFTLTISSLQPEDFATYYCQQTNRYSNPDIYNVFGTGTKVTVLGGGGGSGGGGSGGGGSGGGGSEVQLVESGGGLVQPGGSLRLSCAASGIDFNSNYYMCWVRQAPGKGLEWIGCIYVGSHVNTYYANWAKGRFTISRDNSKNTVYLQMNSLRAEDTAVYYCATSGSSVLYFKFWGQGTLVTVSSGGGGSGGGGSEVQLVESGGGLVQPGGSLRLSCAASGFPLSSYAMIWVRQAPGKCLEWIGMILRAGNIYYASWVKGRFTISRDNSKNTVYLQMNSLRAEDTAVYYCARRHYNREGYPIGIGDLWGQGTLVTVSSGGGGSGGGGSGGGGSEVQLVESGGGLVQPGGSLRLSCAASGFSLSSNAMGWVRQAPGKGLEYIGIISVGGFTYYASWAKGRFTISRDNSKNTVYLQMNSLRAEDTATYFCARDRHGGDSSGAFYLWGQGTLVTVSS
# notes: Hetero-dimeric MATCH, parallel; diS in anti-CD3 domain, 15 aa GS-linker, alternative anti-CD3
# B3: PRO736 (other)
# chain 1: DIQMTQSPSSLSASVGDRVTITCQASENIYSFLAWYQQKPGKAPKLLIYSASKLAAGVPSRFSGSGSGTDFTLTISSLQPEDFATYYCQQTNRYSNPDIYNVFGTGTKVTVLGGGGGSGGGGSGGGGSGGGGSEVQLVESGGGLVQPGGSLRLSCAASGIDFNSNYYMCWVRQAPGKGLEWIGCIYVGSHVNTYYANWAKGRFTISRDNSKNTVYLQMNSLRAEDTAVYYCATSGSSVLYFKFWGQGTLVTVSSGGGGSGGGGSDIQMTQSPSSLSASVGDRVTITCQSSQSVFSNNYLAWFQQKPGQSPKRLIYSASTLASGVPSRFSGSGSGTDFTLTISSLQPEDFATYYCLGSYACSSADCYVFGCGTKVTVLGGGGGSGGGGSGGGGSDIQMTQSPSSLSASVGDRVTITCQSSESVYSNNQLSWYQQKPGQPPKLLIYDASDLASGVPSRFSGSGSGTDFTLTISSLQPEDFATYYCAGGFSSSSDTAFGGGTKLTVLG
# chain 2: DIQMTQSPSSLSASVGDRVTITCQASENIYSFLAWYQQKPGKAPKLLIYSASKLAAGVPSRFSGSGSGTDFTLTISSLQPEDFATYYCQQTNRYSNPDIYNVFGTGTKVTVLGGGGGSGGGGSGGGGSGGGGSEVQLVESGGGLVQPGGSLRLSCAASGIDFNSNYYMCWVRQAPGKGLEWIGCIYVGSHVNTYYANWAKGRFTISRDNSKNTVYLQMNSLRAEDTAVYYCATSGSSVLYFKFWGQGTLVTVSSGGGGSGGGGSEVQLVESGGGLVQPGGSLRLSCAASGFSLSSYDMSWVRQAPGKCLAWIGASYASGPTYYASWAKGRFTISRDNSKNTVYLQMNSLRAEDTATYFCARGGWTGTSHSNIWGQGTLVTVSSGGGGSGGGGSGGGGSEVQLVESGGGLVQPGGSLRLSCAASGFSLSSNAMGWVRQAPGKGLEYIGIISVGGFTYYASWAKGRFTISRDNSKNTVYLQMNSLRAEDTATYFCARDRHGGDSSGAFYLWGQGTLVTVSS
# notes: Hetero-dimeric MATCH, parallel; diS in anti-CD3 domain, 15 aa GS-linker
# B4: PRO741 (other)
# chain 1: DIQMTQSPSSLSASVGDRVTITCQASENIYSFLAWYQQKPGKAPKLLIYSASKLAAGVPSRFSGSGSGTDFTLTISSLQPEDFATYYCQQTNRYSNPDIYNVFGTGTKVTVLGGGGGSGGGGSGGGGSGGGGSEVQLVESGGGLVQPGGSLRLSCAASGIDFNSNYYMCWVRQAPGKGLEWIGCIYVGSHVNTYYANWAKGRFTISRDNSKNTVYLQMNSLRAEDTAVYYCATSGSSVLYFKFWGQGTLVTVSSGGGGSGGGGSDIQMTQSPSSLSASVGDRVTITCQSSQSVFSNNYLAWFQQKPGQSPKRLIYSASTLASGVPSRFSGSGSGTDFTLTISSLQPEDFATYYCLGSYACSSADCYVFGCGTKVTVLGSGGGGSGGGGSDVVMTQSPSSLSASVGDRVTITCQASQIISSRSAWYQQKPGQPPKLLIYQASKLASGVPSRFSGSGSGTDFTLTISSLQPEDFATYYCQCTYIDSNFGAFGGGTKLTVLG
# chain 2: DIQMTQSPSSLSASVGDRVTITCQASENIYSFLAWYQQKPGKAPKLLIYSASKLAAGVPSRFSGSGSGTDFTLTISSLQPEDFATYYCQQTNRYSNPDIYNVFGTGTKVTVLGGGGGSGGGGSGGGGSGGGGSEVQLVESGGGLVQPGGSLRLSCAASGIDFNSNYYMCWVRQAPGKGLEWIGCIYVGSHVNTYYANWAKGRFTISRDNSKNTVYLQMNSLRAEDTAVYYCATSGSSVLYFKFWGQGTLVTVSSGGGGSGGGGSEVQLVESGGGLVQPGGSLRLSCAASGFSFSSSYWICWVRQAPGKGLEWVGCVFTGDGTTYYASWAKGRFTISRDNSKNTVYLQMNSLRAEDTATYFCARPVSVYYYGMDLWGQGTLVTVSSSGGGGSGGGGSEVQLVESGGGLVQPGGSLRLSCAASGFSLSSYDMSWVRQAPGKCLAWIGASYASGPTYYASWAKGRFTISRDNSKNTVYLQMNSLRAEDTATYFCARGGWTGTSHSNIWGQGTLVTVSS
# notes: Hetero-dimeric MATCH, anti-parallel; diS in anti-CD3 domain, 11 aa GS-linker, alternative anti-HSA
# B5: PRO733 (other)
# chain 1: DIQMTQSPSSLSASVGDRVTITCQASENIYSFLAWYQQKPGKAPKLLIYSASKLAAGVPSRFSGSGSGTDFTLTISSLQPEDFATYYCQQTNRYSNPDIYNVFGTGTKVTVLGGGGGSGGGGSGGGGSGGGGSEVQLVESGGGLVQPGGSLRLSCAASGIDFNSNYYMCWVRQAPGKGLEWIGCIYVGSHVNTYYANWAKGRFTISRDNSKNTVYLQMNSLRAEDTAVYYCATSGSSVLYFKFWGQGTLVTVSSGGGGSGGGGSDIQMTQSPSSLSASVGDRVTITCQSSESVYNNKRLSWYQQKPGKAPKLLIYTASSLASGVPSRFSGSGSGTDFTLTISSLQPEDFATYYCQGEFTCSNADCFTFGCGTKVTVLGSGGGGSGGGGSDIQMTQSPSSLSASVGDRVTITCQSSESVYSNNQLSWYQQKPGQPPKLLIYDASDLASGVPSRFSGSGSGTDFTLTISSLQPEDFATYYCAGGFSSSSDTAFGGGTKLTVLG
# chain 2: DIQMTQSPSSLSASVGDRVTITCQASENIYSFLAWYQQKPGKAPKLLIYSASKLAAGVPSRFSGSGSGTDFTLTISSLQPEDFATYYCQQTNRYSNPDIYNVFGTGTKVTVLGGGGGSGGGGSGGGGSGGGGSEVQLVESGGGLVQPGGSLRLSCAASGIDFNSNYYMCWVRQAPGKGLEWIGCIYVGSHVNTYYANWAKGRFTISRDNSKNTVYLQMNSLRAEDTAVYYCATSGSSVLYFKFWGQGTLVTVSSGGGGSGGGGSEVQLVESGGGLVQPGGSLRLSCAASGFPLSSYAMIWVRQAPGKCLEWIGMILRAGNIYYASWVKGRFTISRDNSKNTVYLQMNSLRAEDTAVYYCARRHYNREGYPIGIGDLWGQGTLVTVSSSGGGGSGGGGSEVQLVESGGGLVQPGGSLRLSCAASGFSLSSNAMGWVRQAPGKGLEYIGIISVGGFTYYASWAKGRFTISRDNSKNTVYLQMNSLRAEDTATYFCARDRHGGDSSGAFYLWGQGTLVTVSS
# notes: Hetero-dimeric MATCH, parallel; diS in anti-CD3 domain, 11 aa GS-linker, alternative anti-CD3
# Target: T3, human serum albumin (human, UniProt P02768 25-609)
# T3 construct: also called HSA
# Experiment: SPR, target immobilised by amine coupling, binder as analyte
row,Kd,Binder
1,0.325 nM,B1
2,0.493 nM,B2
3,0.635 nM,B3
4,0.338 nM,B4
5,0.495 nM,B5

# Target: T1, cyno CD3
# Experiment: as above
row,Kd,Binder
1,6.64 nM,B1
2,56.7 nM,B2
3,8.37 nM,B3
4,1.08 nM,B4
5,47.7 nM,B5

# Target: T2, human IL-23 receptor ECD
# Experiment: as above
row,Kd,Binder
1,0.0383 nM,B1
2,0.0334 nM,B2
3,0.0482 nM,B3
4,0.0378 nM,B4
5,0.0366 nM,B5

# Target: T4, human CD3 gamma-epsilon single-chain (human, UniProt P09693 23-103; P07766 23-118)
# T4 construct: Recombinant protein immobilised on the SPR chip
# Experiment: as above
row,Kd,Binder
1,8.3 nM,B1
2,24 nM,B2
3,11.1 nM,B3
4,7.58 nM,B4
5,26.5 nM,B5

# Target: human IL23R IL12Rbeta 1 heterodimer on CHO-K1 cells (human, UniProt Q5VWK5 24-629; P42701 24-662)
# Experiment: cell-based or functional assay
row,"NFAT assay EC50 (T-cell activation, 5 h)",Binder
1,1.45 nM,B1
2,0.152 nM,B5
